The Immune Epitope Database (IEDB)

Tests used:
[1] = biological target: HLA-A*68:02; assay: IEDB peptide-MHC binding, purified MHC/competitive/fluorescence; filed as Kd, often an IC50 or EC50 that approximates it; ≥ and ≤ were set here for values at or beyond the usual limits of such assays; details: source organism: Zaire ebolavirus
[2] = biological target: HLA-B*35:01; assay: as above; details: source organism: Zaire ebolavirus
[3] = biological target: HLA-A*26:02; assay: as above
[4] = biological target: HLA-A*26:01; assay: as above
[5] = biological target: HLA-A*30:01; assay: as above; details: source organism: Zaire ebolavirus
[6] = biological target: HLA-B*15:02; assay: IEDB peptide-MHC binding, purified MHC/direct/fluorescence; filed as Kd, often an IC50 or EC50 that approximates it; ≥ and ≤ were set here for values at or beyond the usual limits of such assays
[7] = biological target: HLA-A*01:01; assay: as above
[8] = biological target: HLA-B*07:02; assay: as above
[9] = biological target: HLA-B*39:01; assay: as above
[10] = biological target: HLA-A*02:01; assay: as above
[11] = biological target: HLA-A*11:01; assay: as above
[12] = biological target: HLA-A*69:01; assay: as above
[13] = biological target: HLA-B*08:02; assay: as above
[14] = biological target: HLA-B*48:01; assay: as above
[15] = biological target: HLA-B*27:05; assay: as above
[16] = biological target: HLA-B*46:01; assay: as above
[17] = biological target: HLA-B*57:01; assay: as above
[18] = biological target: HLA-B*08:03; assay: as above
[19] = biological target: HLA-A*31:01; assay: as above
[20] = biological target: HLA-B*15:01; assay: as above
[21] = biological target: HLA-B*15:17; assay: as above
[22] = biological target: HLA-B*58:01; assay: as above
[23] = biological target: HLA-C*06:02; assay: as above
[24] = biological target: HLA-A*02:01; assay: IEDB peptide-MHC binding, purified MHC/competitive/radioactivity; ≥ and ≤ were set here for values at or beyond the usual limits of such assays; details: source organism: Rhinovirus C
[25] = biological target: HLA-C*12:03; assay: IEDB peptide-MHC binding, purified MHC/direct/fluorescence; filed as Kd, often an IC50 or EC50 that approximates it; ≥ and ≤ were set here for values at or beyond the usual limits of such assays
[26] = biological target: HLA-C*08:02; assay: as above
[27] = biological target: HLA-A*02:01; assay: IEDB peptide-MHC binding, purified MHC/competitive/fluorescence; filed as Kd, often an IC50 or EC50 that approximates it; ≥ and ≤ were set here for values at or beyond the usual limits of such assays
[28] = biological target: HLA-A*68:02; assay: IEDB peptide-MHC binding, purified MHC/direct/fluorescence; filed as Kd, often an IC50 or EC50 that approximates it; ≥ and ≤ were set here for values at or beyond the usual limits of such assays; details: source organism: Influenza A virus (A/Quail/Shanghai/8/96(H9N2))
[29] = biological target: HLA-B*35:01; assay: as above
[30] = biological target: HLA-B*08:01; assay: as above
[31] = biological target: HLA-A*32:07; assay: IEDB peptide-MHC binding, purified MHC/competitive/fluorescence; filed as Kd, often an IC50 or EC50 that approximates it; ≥ and ≤ were set here for values at or beyond the usual limits of such assays; details: source organism: Salmonella enterica subsp. enterica serovar Typhi
[32] = biological target: HLA-B*15:42; assay: as above; details: source organism: Salmonella enterica subsp. enterica serovar Typhi
[33] = biological target: HLA-B*39:01; assay: as above
[34] = biological target: HLA-B*83:01; assay: as above; details: source organism: Salmonella enterica subsp. enterica serovar Typhi
[35] = biological target: HLA-B*45:06; assay: as above; details: source organism: Salmonella enterica subsp. enterica serovar Typhi
[36] = biological target: HLA-A*32:15; assay: as above; details: source organism: Salmonella enterica subsp. enterica serovar Typhi
[37] = biological target: HLA-C*14:02; assay: as above; details: source organism: Salmonella enterica subsp. enterica serovar Typhi
[38] = biological target: HLA-A*68:23; assay: as above; details: source organism: Salmonella enterica subsp. enterica serovar Typhi
[39] = biological target: HLA-C*03:03; assay: IEDB peptide-MHC binding, purified MHC/direct/fluorescence; filed as Kd, often an IC50 or EC50 that approximates it; ≥ and ≤ were set here for values at or beyond the usual limits of such assays; details: source organism: Salmonella enterica subsp. enterica serovar Typhi str. CT18
[40] = biological target: HLA-C*05:01; assay: as above; details: source organism: Salmonella enterica subsp. enterica serovar Typhi str. CT18
[41] = biological target: HLA-B*40:01; assay: as above; details: source organism: Rickettsia prowazekii
[42] = biological target: HLA-B*44:02; assay: as above; details: source organism: Rickettsia prowazekii
[43] = biological target: HLA-A*03:01; assay: as above; details: source organism: Rickettsia prowazekii
[44] = biological target: HLA-A*26:01; assay: as above; details: source organism: Rickettsia prowazekii
[45] = source organism: Zaire ebolavirus
[46] = source organism: Ravn virus - Ravn, Kenya, 1987
[47] = source organism: Ebola virus - Mayinga, Zaire, 1976
[48] = source organism: Pseudomonas aeruginosa PACS2
[49] = source organism: Pseudomonas putida
[50] = source organism: Escherichia coli 536
[51] = source organism: Influenza A virus (A/Quail/Shanghai/8/96(H9N2))
[52] = source organism: Salmonella enterica subsp. enterica serovar Typhi
[53] = source organism: Rickettsia prowazekii
[54] = source organism: Salmonella enterica

FIYFGKKQY
Kd [1]: 4.98 µM
Kd [2]: 1.49 µM
Kd [3, 45]: ≥ 20 µM
Kd [4, 45]: 2.3 µM
Kd [5]: ≥ 20 µM
Kd [6, 46]: 0.008 µM
Kd [7, 47]: 0.451 µM
Kd [8, 47]: ≥ 20 µM
Kd [9, 46]: ≥ 20 µM
Kd [10, 47]: ≥ 20 µM
Kd [11, 47]: ≥ 20 µM
Kd [12, 47]: ≥ 20 µM
Kd [13, 46]: ≥ 20 µM
Kd [14, 47]: ≥ 20 µM
Kd [15, 47]: ≥ 20 µM
Kd [16, 47]: ≥ 20 µM
Kd [17, 47]: 7.13 µM
Kd [18, 46]: ≥ 20 µM
Kd [19, 47]: ≥ 20 µM
Kd [20, 47]: 0.067 µM
Kd [21, 47]: 0.135 µM
Kd [22, 47]: ≥ 20 µM

FQYLLPGFVL
Kd ([23]; source organism: Variola virus): 8.62 µM

GLEPLDLNT
IC50 [24]: 0.5 µM

IVHPPMLYM
Kd ([17]; source organism: Vibrio vulnificus CMCP6): 2.17 µM
Kd [25, 48]: 0.062 µM
Kd [21, 49]: 0.0611 µM
Kd [22, 49]: 5.98 µM
Kd [26, 48]: ≥ 20 µM

LLDEYRDYI
Kd [27, 50]: 0.0011 µM
Kd [26, 50]: ≥ 20 µM

LVGGREWSY
Kd [3, 51]: ≥ 20 µM
Kd [4, 51]: ≥ 20 µM
Kd [28]: ≥ 20 µM
Kd [6, 51]: ≥ 20 µM
Kd [7, 51]: ≥ 20 µM
Kd [8, 51]: ≥ 20 µM
Kd [9, 51]: ≥ 20 µM
Kd [29, 51]: 0.843 µM
Kd [10, 51]: ≥ 20 µM
Kd [11, 51]: ≥ 20 µM
Kd [12, 51]: ≥ 20 µM
Kd [30, 51]: ≥ 20 µM
Kd [13, 51]: ≥ 20 µM
Kd [14, 51]: ≥ 20 µM
Kd [15, 51]: ≥ 20 µM
Kd [16, 51]: ≥ 20 µM
Kd [17, 51]: 1.3 µM
Kd [18, 51]: ≥ 20 µM
Kd [19, 51]: ≥ 20 µM
Kd [20, 51]: 1.19 µM
Kd [21, 51]: 1.89 µM
Kd [22, 51]: ≥ 20 µM

WTFTPTTPL
Kd [31]: 0.765 µM
Kd [32]: ≥ 5 µM
Kd [33, 52]: 0.469 µM
Kd [34]: ≥ 5 µM
Kd [27, 52]: 0.0058 µM
Kd [35]: ≥ 5 µM
Kd [36]: 0.0575 µM
Kd [4, 52]: 0.581 µM
Kd [37]: 0.0385 µM
Kd [38]: 0.0004 µM
Kd [39]: ≤ 0.001 µM
Kd [40]: ≥ 20 µM
Kd ([25]; source organism: Salmonella enterica subsp. enterica serovar Typhi str. CT18): 0.212 µM

YGGKKAVTY
Kd [41]: ≥ 20 µM
Kd [6, 53]: ≥ 20 µM
Kd [7, 53]: ≥ 20 µM
Kd [8, 53]: ≥ 20 µM
Kd [29, 53]: 0.249 µM
Kd [10, 53]: ≥ 20 µM
Kd [42]: ≥ 20 µM
Kd [11, 53]: ≥ 20 µM
Kd [43]: ≥ 20 µM
Kd [12, 53]: ≥ 20 µM
Kd [30, 53]: ≥ 20 µM
Kd [15, 53]: ≥ 20 µM
Kd [44]: ≥ 20 µM
Kd [16, 53]: ≥ 20 µM
Kd [19, 53]: ≥ 20 µM
Kd [20, 53]: 1.4 µM
Kd [22, 53]: ≥ 20 µM

YRYISFLVL
Kd [33, 54]: 0.536 µM
Kd [23, 54]: 0.651 µM
